In US20080311122A1 (AstraZeneca / MedImmune, published 2008):

What was measured:
[1] = biological target: T1, HMG1 B Box peptide amino acids 91-169; assay: ELISA, wells coated with HMG1 B Box peptide 91-169 at 10 ug/ml
T1 construct: also called HMG1 peptide 91-169
T1 peptide: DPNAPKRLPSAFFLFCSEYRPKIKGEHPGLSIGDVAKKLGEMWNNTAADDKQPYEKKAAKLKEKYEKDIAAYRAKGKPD
Procedure: (§1) The plate was then blocked with 4% milk powder dissolved in PBS at 37° C. for 1 hour. The blocking solution was removed and replaced with human anti-HMG1 antibodies at various concentrations (see FIGS. 5A-B). […] HRP activity was detected with Sureblue HRP substrate (KPL). Plates were read at 450 nm using a Kinetic Microplate Reader (Molecular Devices). […] After washing and blocking with 1% BSA in PBS, the biotinylated peptides were individually added into the avidin coated wells and incubated for 30 min at room temperature. The serial diluted antibody G4, S16 and S6 at the initial concentration at 10 μg/ml were then transferred into the wells followed by adding mouse anti human IgG-HRP conjugate (Pierce). Detection was accomplished by adding 50 μl of tetramethylbenzidine (TMB) substrate (KPL) and the absorbance was read at […].

[2] = biological target: T2, HMG1 B Box peptide amino acids 150-183; assay: ELISA, wells coated with HMG1 B Box peptide 150-183 at 10 ug/ml
T2 peptide: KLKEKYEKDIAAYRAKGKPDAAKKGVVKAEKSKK
Procedure: as §1

[3] = biological target: T3, HMGB1 in human brain tissue of multiple sclerosis plaques (human, UniProt P09429 1-215); assay: staining of human brain tissue
T3 construct: also called HMGB1 (MS plaques)
T3 sequence (looked up): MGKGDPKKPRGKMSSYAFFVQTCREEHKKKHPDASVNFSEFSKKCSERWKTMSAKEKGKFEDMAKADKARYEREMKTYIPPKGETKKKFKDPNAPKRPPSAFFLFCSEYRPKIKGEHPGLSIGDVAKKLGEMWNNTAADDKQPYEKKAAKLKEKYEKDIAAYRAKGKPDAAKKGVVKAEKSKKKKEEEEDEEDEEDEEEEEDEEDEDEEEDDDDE

[4] = biological target: T4, recombinant HMG1 purified from E. coli as a calmodulin binding protein (CBP) fusion protein (human, UniProt A9RA84 1-215 (Papio anubis entry)); assay: BIAcore, mAb immobilized, HMG1 injected, steady-state model
T4 construct: also called rHMG1; rHMGB1
T4 sequence: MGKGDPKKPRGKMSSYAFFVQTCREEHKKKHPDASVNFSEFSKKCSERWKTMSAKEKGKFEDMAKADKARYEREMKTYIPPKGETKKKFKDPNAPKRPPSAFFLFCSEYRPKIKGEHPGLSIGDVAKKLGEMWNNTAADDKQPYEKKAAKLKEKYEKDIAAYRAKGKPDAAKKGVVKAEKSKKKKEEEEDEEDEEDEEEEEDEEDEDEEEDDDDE
Procedure: HMG1 Binding Affinity via BIAcore Analysis: All experiments were performed on a BIAcore 3000 instrument (BIAcore, Inc., Piscataway, N.J.). Briefly, each mAb was immobilized to a CM5 sensor chip using a standard amino coupling chemistry. Separately a reference (control) flow cell was also prepared. Two-fold, serial dilutions of HMG1 in instrument buffer were sequentially injected at a slow flow rate over the individual mAb and reference flow-cell surfaces. Following the binding and dissociation of HMG1, the mAbs surfaces were regenerated with a brief pulse of 1M NaCl-50 mM NaOH. At the end of each experiment, the binding curves were evaluated using a steady-state model available through the BIA evaluation software supplied by BIAcore, Inc. (Piscataway, N.J.).

[5] = biological target: T4, recombinant HMG1 purified from E. coli …; assay: cell-based or functional assay
[6] = biological target: T2, HMG1 B Box peptide amino acids 150-183; assay: ELISA, wells coated with HMG1 B Box peptide 150-183 at 10 ug/ml, anti-human IgG-HRP, OD 450
Procedure: as §1

[7] = biological target: T1, HMG1 B Box peptide amino acids 91-169; assay: ELISA, wells coated with HMG1 B Box peptide 91-169 at 10 ug/ml, anti-human IgG-HRP, OD 450
Procedure: as §1

[8] = biological target: T5, HMG1 purified from bovine (calf) thymus (bovine, UniProt P10103 2-215); assay: ELISA, wells coated with calf thymus HMGB1 at 5 ug/mL, antibody at 10 ug/mL, anti-human kappa/lambda-HRP, OD 490
T5 construct: also called Calf thymus HMGB1; thymus HMG1
T5 sequence (looked up): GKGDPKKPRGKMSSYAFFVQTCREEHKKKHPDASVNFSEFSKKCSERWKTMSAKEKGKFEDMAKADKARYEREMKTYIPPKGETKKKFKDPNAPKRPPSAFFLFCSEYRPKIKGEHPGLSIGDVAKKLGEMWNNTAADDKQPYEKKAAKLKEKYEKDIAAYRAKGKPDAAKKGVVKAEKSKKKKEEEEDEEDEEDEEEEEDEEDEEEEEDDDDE
Procedure: Binding to HMG1 vs. HMG2: Ultra high-binding ELISA plates (ThermoLab systems, #3855) were coated with either 5 ug/mL of Calf thymus HMGB1 or HMBG2 diluted in 10 mM Phosphate buffered saline (PBS), pH 7.2 and incubate overnight at 4 degrees. The plates were washed twice with Ca and Mg free PBS and 100 microliters of anti-HMGB1 antibody diluted in 10 mM PBS, pH 7.2+1% bovine serum albumin (BSA) to a final concentration of 10 ug/mL was added to each well and the plates were incubated 1 hour at room temperature. The wells were washed three times with 100 μl of PBS, pH 7.2. HRP labeled goat-anti-human IgG Kappa-chain (KPL, #14-10-10) and goat-anti-human IgG Lambda-chain (KPL, #14-10-11) were diluted in 10 mM PBS+1% BSA 1:1000 and 100 μl were added to each well and incubated for 1 hour at room temperature. The wells were then washed three times with 100 μl of PBS, pH 7.2. OPD substrate (Pierce chemical company, #34006) was prepared following the manufacturers instructions and 100 μl of prepared substrate was added to each well and the plates incubated at room temperature in the dark for 20-30 minutes. The reaction was stopped with the addition of 100 μl of 2M H₂SO₄, and the plates read on a plate reader at a wavelength of 490 nm.

[9] = biological target: T4, recombinant HMG1 purified from E. coli …; assay: ELISA format 'Soluble HMG1/Captured Antibody' (squares): antibody captured on anti-human IgG Fc, HMG1 in solution
Procedure: Sandwich ELISA (soluble HMG1): Immunoplates (EIA/RIA plate, High binding, Costar) were coated with anti human IgG Fc at 10 μg/ml in PBS (pH 7.2) and incubated at 4° C. overnight. The coating reagent was removed and the plates were rinsed briefly with PBS. The plates were then blocked with 4% milk for 1 hour at 37° C. and rinsed with PBS. The anti-HMG1 antibodies were diluted in 4% milk. For serial dilutions, the antibodies were used at a starting concentration of 20 μg/ml. The diluted anti-HMG1 antibodies were then added into plate and incubated for 1 hr at 37° C. The plate was then washed 10 times with PBST (PBS/0.1% tween 20) and incubate with antigen (HMGB1, 2 μg/ml; or 0.7 μg/ml for native HMGB1) in 4% milk and incubated at 37° C. for 1 h. The plate was then wash 10 times and incubated with mouse anti-HMGB1, 1 μg/ml in 4% milk at 37° C. for 1 h. The plate was washed 10 times and incubated with anti-mouse IgG-HRP at 1:1000 at 37° C. for 1 h. The plate was then washed and developed. HRP activity was detected with Sureblue HRP substrate (KPL). Plates were read at 450 nm using a Kinetic Microplate Reader (Molecular Devices).

[10] = biological target: T6, recombinant rat HMGB-1, Europium-labeled (rat, UniProt P63159 1-215, limits assumed, Europium label, molar ratio of HMGB-1 to Eu 1:5); assay: inhibition of binding of Eu-labeled HMGB-1 to THP-1 cells
T6 construct: also called Europium-labeled HMGB-1; recombinant HMG1 (Thp-1 assay)
T6 sequence (looked up): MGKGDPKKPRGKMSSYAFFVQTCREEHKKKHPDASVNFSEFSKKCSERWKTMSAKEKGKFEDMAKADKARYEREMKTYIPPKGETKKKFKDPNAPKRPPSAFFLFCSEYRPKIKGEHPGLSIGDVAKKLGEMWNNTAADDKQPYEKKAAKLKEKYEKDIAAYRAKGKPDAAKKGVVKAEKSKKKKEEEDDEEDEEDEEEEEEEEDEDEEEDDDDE
Procedure: HMG1 binding to THP-1 Cells: Recombinant rat HMGB-1 was labeled using Eu-labelling Kit from PerkinElmer. Molar ratio of HMGB-1 to Eu is 1:5. THP-1 were cultured as the protocol from ATCC. Cells were harvested and suspended at concentration 1×10⁶/ml in assay buffer containing 1×DELFIA L*R binding buffer (PerkinElmer), 50% of DELFIA stabilizer (PerkinElmer) and 0.05% of sodium azide. 100 μl of cells (1×10⁵) was added into wells in 96 well cell culture plate. The plate was incubated with gentle shaking at 4° C. for one hour. 100 μl of assay buffer containing 2 nM of Europium-labeled HMGB-1 mixed with various concentrations (333, 166.5, 83.25, 41.6, 20.8, 10.4 and 5.2 nM) of human anti-HMGB1 antibodies E11 or G2 or soluble human RAGE-Fc, were added into each wells respectively. After one hour incubation with gentle shaking at 4° C., the cells were washed four times with 1×L*R wash buffer (PerkinElmer) by centrifuging at 1200 rpm×5 min. 200 μl of enhancement solution was added into each well to dissociate and enhance Eu fluorescence at 615 nm. The fluorescence was measured with Wallac Victor Fluorometer. Assay was performed in triplicate and human antibody R3-47 was used the negative isotype control.

[11] = biological target: T7, activated HMG1 prepared from LPS stimulated THP-1 cells (human, UniProt P09429 1-215); assay: cell-based or functional assay
T7 sequence (looked up): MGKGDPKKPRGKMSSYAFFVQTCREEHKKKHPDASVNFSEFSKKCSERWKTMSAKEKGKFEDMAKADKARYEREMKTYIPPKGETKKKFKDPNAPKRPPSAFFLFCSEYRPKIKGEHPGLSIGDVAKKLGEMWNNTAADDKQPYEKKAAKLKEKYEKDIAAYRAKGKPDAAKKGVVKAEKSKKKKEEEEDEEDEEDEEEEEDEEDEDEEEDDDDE

Mouse RAGE/Fc = biological target: T8, Mouse RAGE/Fc (mouse, UniProt Q62151 24-342); assay: ELISA, HMGB1 titrated on RAGE-Fc in the presence of 0.03 µM CpG-A (right panel)
T8 construct: also called RAGE/Fc fusion; not shown: Fc part not described
T8 sequence (Q62151 24-342): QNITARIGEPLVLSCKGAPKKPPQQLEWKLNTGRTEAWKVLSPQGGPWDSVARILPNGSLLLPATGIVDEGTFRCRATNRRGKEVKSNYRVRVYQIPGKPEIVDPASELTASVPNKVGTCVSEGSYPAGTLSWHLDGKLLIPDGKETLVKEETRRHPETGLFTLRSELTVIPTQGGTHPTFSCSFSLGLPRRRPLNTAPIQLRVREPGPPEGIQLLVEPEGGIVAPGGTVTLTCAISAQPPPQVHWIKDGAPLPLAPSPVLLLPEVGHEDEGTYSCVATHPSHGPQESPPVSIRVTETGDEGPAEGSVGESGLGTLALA

B1: anti-HMG1 antibody G16 (antibody, V domains shown)
VH: EVQLLESGGGLVQPGGSLRLSCAASGFTFSWYKMTWVRQAPGKGLEWVSSISPSGGFTSYADSVKGRFTISRDNSKNTLYLQMNSLRAEDTAVYYCARDLDIRHAFDIWGQGTMVTVSS
VL: DIQMTQSPGTLSLSPGESGTLSCRASESVSSRHFAWYQQKPGQAPRLLIYGASSRPTGIPDRFSGSGSGTDFTLTLSRLEPEDFAVYFCQYYGSSPYTFGGGTKVEMK
**Q.** What does the source list for B1?
**A.** binding result [1]: no binding (tested: 10 ug/ml (log 1.00)); binding result [2]: no binding (tested: 10 ug/ml (log 1.00)); binding result [3]: binds; Kd [4]: 22 nM; IC50, inhibition of HMG1 stimulated NO release from macrophages [5]: 22 µg/mL; IC50, inhibition of rHMG1 stimulated IL-6 release from human PBMC [5]: 1.06 nM

B2: anti-HMG1 antibody S12 (antibody, V domains shown)
VH: EVQLLESGGGLVQPGGSLRLSCAASGFTFSKYIMHWVRQAPGKGLEWVSGIVPSGGLTEYADSVKGRFTISRDNSKNTLYLQMNSLRAEDTATYYCAKEIFGQFDYWGQGTLVTVSS
VL: AQSALTQPPSVSAAPRQRVTISCSGSTSNIGNNAVTWYQYFPGKAPKLLIYSDNQRPSGVPDRFSGSKSGTSASLAITGLQAEDEADYYCQSYDRGLSVVFGGGTKLTVL
**Q.** Does B2 bind [6]?
**A.** binds

**Q.** Does B2 bind [7]?
**A.** binds

**Q.** Does B2 bind [8]?
**A.** binds

**Q.** And the “IC50, inhibition of rHMG1 stimulated IL-6 release from human PBMC” value [5]?
**A.** 1.67 nM

B3: anti-HMG1 antibody E11 (antibody, V domains shown)
VH: EVQLLESGGGLVQPGGSLRLSCAASGFTFSRYQMNWVRQAPGKGLEWVSSISPSGGHTHYADSVKGRFTISRDNSKNTLYLQMNSLRAEDTAVYYCAKDGRQGKISTVDHWGQGTLVTVSS
VL: DIQMTQSPGTLSLSPGERATLSCRASQSVRSNFLAWYQQKPGQAPRLLIYGASRRASGIPDRFSGSGFGADFTLSISRLEPEDFAVYYCQQYGSSPNTFGQGSRVEIK
**Q.** Does B3 bind [1]?
**A.** no binding (tested: 10 ug/ml (log 1.00))

**Q.** Does B3 bind [8]?
**A.** binds

**Q.** Does B3 bind [2]?
**A.** no binding (tested: 10 ug/ml (log 1.00))

**Q.** What about the “EC50 (read off the curve)” value [9] of the same binder?
**A.** ~0.4 µg/mL

**Q.** And the IC50 [10]?
**A.** 48.1 nM

**Q.** What about the “IC50, inhibition of native activated HMG1 stimulated IL-6 release from human PBMC” value [11] of the same binder?
**A.** 1.73 nM

**Q.** And the “IC50, inhibition of HMG1 stimulated NO release from macrophages” value [5]?
**A.** 101 µg/mL

**Q.** What about the “IC50, inhibition of rHMG1 stimulated IL-6 release from human PBMC” value [5] of the same binder?
**A.** 1.22 nM

B4: HMGB1/CpG-A complex (other, bovine, UniProt P10103 2-215, looked up)
chain: GKGDPKKPRGKMSSYAFFVQTCREEHKKKHPDASVNFSEFSKKCSERWKTMSAKEKGKFEDMAKADKARYEREMKTYIPPKGETKKKFKDPNAPKRPPSAFFLFCSEYRPKIKGEHPGLSIGDVAKKLGEMWNNTAADDKQPYEKKAAKLKEKYEKDIAAYRAKGKPDAAKKGVVKAEKSKKKKEEEEDEEDEEDEEEEEDEEDEEEEEDDDDE
notes: also called HMGB1/CpG complex; CpG/HMGB1 complex
**Q.** B4 was tested. Which “EC50 (read off the curve)” value (Mouse RAGE/Fc) did it give?
**A.** ~0.1 µM
